Kd data for 1 substance are collected here from publication PMC9668162.

The target in the assay is PAM1.4 Fab (human) (UniProt P01834). As to the kind of experiment: ELISA. For orientation: In an ELISA, binding on a coated surface is turned into a signal by an enzyme label.

The term Kd denotes the equilibrium constant for the complex coming apart. A lower Kd goes with higher affinity.

For the substance “recombinant full-length VAR2CSA (variant FCR3), full ectodomain (domain or fragment)”, the Kd came out at 12 nM.
